Test results reported in a protein production outcome set (Wang et al. 2014).

Assay: label from the status in PepcDB records
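Further: failed if final PepcDB status was selected cloned or expressed and not failed if soluble or beyond.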

Row | Sequence | protein production
1 | MRITRIMKTAKTARTTTSTRTSGARQAAAPLIKFSLFALVTMVATTLLAATIVNISLTPEHTYRAVFSDVTGLEKGDDIRVAGVRVGQVEGIRIKDRTLAEVTFTVGEDRPLLNSTGAVVRYRNLVGQRYVALTEGAGDATRLKPGATIPLSRTQPALDLNALLNGFKPLFAALSPQDVNQLATEIIRTLQGEGGTVNSLLAHTASLTTTLAGRDKLIGSVIDNLNTVLETLDQRGARFSGLLKQLRRVISGLSADRKPIGQSLVGIGDLTDATSGLLKDARPPLKDDIAELTDLTGTLNKNENTVEGVLKRLPNKLGELTGTASYGSWFNFYLCDFDGRIVLPKTKQVLTPELHVARARCGA | failed
2 | MSQAISLNQSTWASKLKAMGPGILMATAAVGGSHIVSSTQAGGSYGWSLLLLVILANVFKYPFFRFGAEYTADTGKTLVEGYAEKGKLYLWIFFILNVFSAMVNTAGVAILCSAIIASAFPMIGLSITQWSLILVAIIWAMLLFGGYKLLDGMVKWIMSALTIATVLAVIIAAVKHPEYSSDFVEKTPWQMAALPFIVSLLGWMPAPIEISAINSLWSAEKRKTVNFNTEDALFDFNTGYIGTAILAVFFVALGALIQYPTGQAVEAASAKYISQFVGMYASVLGEWSRYLITFIAFLCIFGTVITVIDGYSRVNQESLRLLISQKEDNRKSLNIWMTITAIIGIVIIKFFAGQVSTMLRFAMIGSFLTTPFFALLNYALVTRENKNLPSWLKHLAIAGLIFLFGFAIFFIYALAIGKAG | failed
3 | MSNARIGIDMSKIYAPKSIDLSSFQLPDEKLQTKYGLPHKVEFCKSCVISNQRPNSAVEYEHKKESKKHTIHFDDEGICDACRVAERKKSTINWEERDRQLRELCDRFRSKDGSYDCVVPGSGGKDSFYAAHILKYKYGMNPLTVTWAPHMYTPWGWRNFQSWIHAGFDNHLFTPNGRVHRLLTRLAVENLFHPFQPFMIGQKAYAPKMALLHKIKLVVYGENEAEYGNPIGDTESAKRDWKYFTADDKSKIFLGGTSVQELKSDFGLNDNDLDAYLPADPQQIEEQQVEVHYLGYYLKWHPQSCYYYSVEHGGFEASPERTPGTYSKYNSIDDKIDDFHYYTTLTKFGIGRATYDASQEIRSGDITVEEGVALVKRFDQEFPERFAEEIFKYLSINLKEFPIASQMFEQPIMDRAYFMALADTFRSPHLWKKDGEQWKLRHQVTNLEKTKAEYLDLETV | not failed
4 | MIERLELRNLTVFTGLTLELSPKINVIIGENGTGKTHLLKAAYGLCAGAPLFKNKPDTGDDELEAALTAKLLRLFMPLDDKLGKMHRQGATDQAYLSAKFAGGQKIAATFFNNSKALAVQDRANYEKYQAEAVFIPTKEVLSFMKGFNSLYEKYGLSFDQTYQDICLLLDLPEVRPETLHEKSKWAMAEIEGICGGRFVFYGGGKVTFKTENAEYSANSMAEGFRKAGILSRLLETGAIQPGVSGPLFWDEPESNLNPKLMKLLVQILLELSRNGQQIILATHDYVLLKWFDLLMDKGKDDHVRFHSLYRDADTSEIKVASTEDYLKITPNPIDEAFGFLINQEIENDMGGLGK | failed
5 | MSVTRRELLKLAGAAGAMSLAPAIVRAQKLEKAKVQIAVGGKPLIYYLPLTIAEVKGFFKDEGLDVSIADFAGGSKALQAVVGGSADVVSGAFEHTLSLQAKGQFYRAFALQGRAPMIGVGVSKKNLPGYKGPADLKGRKIGVTAPGSSTNMVVNFFLAKHGLKASDVSFIGVGAGAGAVTALRSGQIDAISNTDPVVSMLETSGDIQIIVDTRTLKDTKEIFGGNMPAGCLYAPQAFVDANPNTAQALTNAIVRADKWIQKAGADEIAKAVPEGYLLGDPAVYKAAIGKSMEGLSPDGVIPEDGAATALKALAAFVPDFDAAKVDPAKAWTNEYTRRANEKYPNG | not failed
6 | MDRLSDFERLTAEIKSLKESLKEKIDKVLSRSVKEASETSEEKKEQSEIAEEGNEDGDNVLVSSLEDEIDSKEEEVLAASCRLLNMFRELDCTFDGPERRMGRLNLNEITEACSRHIVTAMETEQETLNRAISISNAWKHQVSALFNGGIEGEQIKKDLQRLKASSGDEVYWLIRKAFREARVALRTNVYMKPWNLEERREATLMELLGPLPEIARRRLQGRPRRDDCC | failed
7 | QSLRSFQKQNEDNDKRQQILRSINVNVSSSEAETKYNELIKEAFLVNENGEKVEGDAFATDVVKAATEHQYPVFVANVDGQPKYIMALHGAGLWGPLWGYISVDSDKNTIYGADFSHQGETPGLGAEISKPVFSNEFKGKKIFMSGEFKSVAVVKPGKSVAGQDYVDGISGGTITSKGVDEMLFNSLSGYVKFLTSQN | not failed
8 | MIDDKYFDVFNDKSTLQAIAVPERLERRTTVTDRIDRNGTRHEAVVPVGAAYTLLPKQFCKPAAKNYLFELDDFQKISVCSLERDESVLVSAHTSSGKTVVAEYAIAMSLRSNQRVVYTSPIKALSNQKYRELLSEFSDVGLMTGDVTINPTASCLVMTTEILRNMLYRGGEVVREIHWIIFDEIHYMRDKERGVVWEETIILLPKHVRMVFLSATIPNALEFAEWISHIQSQVVHVVYTEKRVTPLVHYFRSNKLYKIKDAKFHKSNFLSAMRSIRKRNVGPREVGEAIGDASLPVVVFSFKRKDCERFAMKLDGRYLTDEEARTVQTIFTNAIMSLRKEDREIPIIQNILPLLMRGIGIHHSGLLPIIKEVVEILFQEGLLKVLFATETFSIGLNMPAKSVVFTALKKFDGEAMRLVSSGEYIQMSGRAGRRGIDSMGIVISIISEPITYKEASRLFSASSDNLVSAFRLTYNMLLNLMRVEGLDPLYLISRSFHHFQSYKKALAEEETLHLMYRRLEDIEPNETACLYRKREEKKVERGKRLVEAFGKYLKKGRVVDLFIPRNGPSITIRNAIVSKAREKVQCMVGTEEGVYMCSFPLHYIDCVYDIRVKLDVRVFTKSFEKIAVRDELDEEIEEIEGKILSMDPEWSFDFCVLCGKSSVGCLVSCSRELIDSEAVIVQMPENTKRYGESLEAARYPSTEMKSNMDGARAFFVNETLRQRYLEKLLELNSLKEIYHMRECKKMIEVLKKLEYCDDTTVLIKGRMACEISSGDELVLTEMIFNGDFAGIPVEHFVPLLSCIVFEEWDSDSFVLSDENKLYYRLLSDSVEKVCKVLKSCGIEIDPAAYLKRFSYELMDVVRMWVCGCTFISICSKTSIFEGSIIRTFKRLEELLRQLSSAARVIGNTELENMFALGIVKIKRDIVFANSLYI | failed
9 | MQIRVYDEGAVQDCLFVLGWGNRCRHRTVQWLIDQLTTAYRVHAVELPTHITDYRREWVGPVQEYAADLGRFDLLGHSAGGLTAAHLDADGIGNRVYLSPWWDSDFPVPGPVLDAIASLPITKPFIPIDTLDADAIGDLATAQQLAEAPSSVSPAFLRTVFRAQRSLPPARDTAAAFCSLTDTVVDPRAVGERLPADRIRLYDGGHELFSSSGREDTAETVIDTLQHGPDAL | failed
10 | MKKATIAATAGIAVTAFAAPTIASASTVVVEAGDTLWGIAQSKGTTVDAIKKANNLTTDKIVPGQKLQVNNEVAAAEKTEKSVSATWLNVRSGAGVDNSIITSIKGGTKVTVETTESNGWHKITYNDGKTGFVNGKYLTDKAVSTPVAPTQEVKKETTTQQAAPAAETKTEVKQTTQATTPAPKVAETKETPVVDQNATTHAVKSGDTIWALSVKYGVSVQDIMSWNNLSSSSIYVGQKLAIKQTANTATPKAEVKTEAPAAEKQAAPVVKENTNTNTATTEKKETATQQQTAPKAPTEAAKPAPAPSTNTNANKTNTNTNTNTNTNNTNTNTPSKNTNTNSNTNTNTNSNTNANQGSSNNNSNSSASAIIAEAQKHLGKAYSWGGNGPTTFDCSGYTKYVFAKAGISLPRTSGAQYASTTRISESQAKPGDLVFFDYGSGISHVGIYVGNGQMINAQDNGVKYDNIHGSGWGKYLVGFGRV | failed
11 | MAEEKIKKSLLAADDSDDEYSRGDTVSDQTELSSILDKLSLEPKTEKKKLLVLSLSGLLLHRVHKKELRKKPKNRSPDASCGPNLVYKRPFAEEFMKFCLERFEVGIWSSACELVSSLNILIVTGPRECTDSGYKTLENRYKPLFFKDLSKVFKCFKGFSASNTIFIDDEPYKALRNPDNTGLFPMSYDASNIKDNLLDPEGELCSYLEGLAKSSDVQAYIKVHSFGRPMIDSSHPDWSFYSNVSKIVS | failed
12 | MPNTNPVAAWKALKEGNERFVAGRPQHPSQSVDHRAGLAAGQKPTAVIFGCADSRVAAEIIFDQGLGDMFVVRTAGHVIDSAVLGSIEYAVTVLNVPLIVVLGHDSCGAVNAALAAINDGTLPGGYVRDVVERVAPSVLLGRRDGLSRVDEFEQRHVHETVAILMARSSAISERIAGGSLAIVGVTYQLDDGRAVLRDHIGNIGEEV | not failed
13 | MAILVDVRAAREIQDGEAGCRWERPLALGQGAFYAATGAWPLVHMPSFVAVTGPKLEPWLVRTVGVLIGAIGGTLLSAGARRRITPEVRWLALASAAGIAAVELWYAGRRRRIAPVYLLDGAGELALAAAWAALGAGRRLRGGVGTVAGGRGRHGREEDAR | failed
14 | MVTPSLRLVFVKGPREGDALDYKPGSTIRVGRIVRGNEIAIKDAGISTKHLRIESDSGNWVIQDLGSSNGTLLNSNALDPETSVNLGDGDVIKLGEYTSILVNFV | not failed
15 | SSKVIIPKIVGHRGVGKEGLAPENTLRSFVLCMERNIPYIETDLRVCKTGEIVLFHGTPEGTIPFYKDGTSRIGDLSLEELKRLDVGGGHTIPSLEELFVAIEEQKFNLKLNLELKGEEWKRKESGDHQRLLLLVEKYHMQERVDYCSFHHEALAHLKALCPDVKITYLFNYMGQPTPLDFVEQACYGDANGVSMLFHYLTKEQVCTAHEKGLSVTVWMPWIFDDSEEDWKKCLELQVDLICSNYPFGLMNFLSNISE | not failed
16 | MKRKHLSGKSIGIVFGTFAPMHVGHVDLITKEKRANDNVLVIVSGSNTQKDRGTRTGLSLNRRFRNVREIFYDDELIVVDKLDEADMPPYPEGWVPWVNRVKDLITKNTDGPEKITFYVGESEYVIELNRYYPQAQVELIECSVINISATEIRDNPIENWRFITKPFRRHF | failed
17 | MSIVVPAYEEAQSLPELADGVRAACEEAGLSFRLWIIDDGSRDETWEVVRGLCEDDPRVAGVRFRRNYGKSAALAVGFDRVQGRYVATMDADLQDDPDEIPALIDKLEEGGHDLVSGWKKDRKDPLRKTLPSRFFNWVTRLFSGLPLHDFNCGLKVYRRPVVKSIDVYGELHRYIPLLAKWEGYDRVAEKEVQHHPRKYGTTKFGVERFIQGFLDLITVVFLTRYAVRPMHFFGSMGTVAFALGFLVSLWLSFDKLVLGHPIGDRPLLLLGVLLILFGSQMFTTGLLGEMIIRPRMEDPSTYEVAEATGLADEAADVLEG | failed
18 | DSALENPAQVRNYLKAQLRHEPHEVFACLFLDNKHRVMTFEILFRGTINASYVHPRQVVKRALAHNAASLILCHNHPSGITTPSRSDIDLTKRLKEALKLVDVHVLDHVIVGDGEPLSMVEKGLM | not failed
19 | MKGLLPLAWFLACSVPAVQGGLLDLKSMIEKVTGKNALTNYGFYGCYCGWGGRGTPKDGTDWCCWAHDHCYGRLEEKGCNIRTQSYKYRFAWGVVTCEPGPFCHVNLCACDRKLVYCLKRNLRSYNPQYQYFPNILCS | failed
